Laboratory results published in patent publication US20200087416A1 (Innovent, published 2020).
Residue numbers refer to the chain shown, from its start.

B1: ADI-10085 (antibody, human IgG2, kappa, V domains shown)
VH: QLQLQESGPGLVKPSETLSLTCTVSGGSIVSSSYYWAWIRQPPGKGLEWIGSINYKGSTYYNPSLKSRVTISVDTSKNQFSLKLSSVTAADTAVYYCARENSGVVPAAGPNWFGPWGQGTLVTVSS
VL: EIVLTQSPATLSLSPGERATLSCRASQSVSSYLAWYQQKPGQAPRLLIYDASNRATGIPARFSGSGSGTDFTLTISSLEPEDFAVYYCQQRRNWFTFGGGTKVEIKR
notes: IgG
B2: ADI-10087 (antibody, human IgG2, kappa, V domains shown)
VH: B1 VH with V30S, S32A, A37S, K56R
VL: B1 VL
notes: also called anti-PCSK antibody of the invention
B3: ADI-10088 (antibody, human IgG2, kappa, V domains shown)
VH: B1 VH with V30G, K56R, G114D
VL: B1 VL
notes: IgG
B4: ADI-10089 (antibody, human IgG2, kappa, V domains shown)
VH: B1 VH with V30G, A37T, K56R, G114D
VL: B1 VL
notes: IgG
B5: ADI-10086 Fab (Fab, V domains shown)
VH: B1 VH with V30R, S33A, A37G, K56R
VL: B1 VL
B6: ADI-10089 Fab (Fab, V domains shown)
VH: B1 VH with V30G, A37T, K56R, G114D
VL: B1 VL
B7: ADI-10090 Fab (Fab, V domains shown)
VH: B1 VH with V30W, A37T, K56R, G114D
VL: B1 VL
B8: ADI-10085 Fab (Fab, V domains shown)
VH: B1 VH
VL: B1 VL
B9: ADI-10087 Fab (Fab, V domains shown)
VH: B1 VH with V30S, S32A, A37S, K56R
VL: B1 VL

Target: T1, human PCSK9 (PCSK9 antigen, SEQ ID NO. 53) (human, UniProt A8T644 31-152; Q8NBP7 153-692, Biotin-labelled on amines in the MSD-SET and sorting experiments; positions not given.)
Assay: cell-based or functional assay
Wherever BODIPY-LDL uptake by HepG2 cells, fluorescence, 16.8 nM, replicate 1 is given: unit not given here.
Wherever BODIPY-LDL uptake by HepG2 cells, fluorescence, 16.8 nM, replicate 2 is given: unit not given here.
Wherever BODIPY-LDL uptake by HepG2 cells, fluorescence, 4.2 nM, replicate 1 is given: unit not given here.
Wherever BODIPY-LDL uptake by HepG2 cells, fluorescence, 4.2 nM, replicate 2 is given: unit not given here.
Wherever BODIPY-LDL uptake by HepG2 cells, fluorescence, 66.7 nM, replicate 1 is given: unit not given here.
Wherever BODIPY-LDL uptake by HepG2 cells, fluorescence, 66.7 nM, replicate 2 is given: unit not given here.

Point of comparison: B2, “fluorescence of BODIPY-LDL in HepG2 cells against no anti-PCSK9 antibody” value ~2 times. Against it:
- B1 — the same, ~2 times
- B3 — the same, ~2 times
- B4 — the same, ~2 times

Target: T1, human PCSK9 (PCSK9 antigen, SEQ ID NO. …)
Assay: flow cytometry, PCSK9 left on CHO-LDLR cells (anti-His-FITC) after premix with 100 nM antibody

Point of comparison: B4, “Fluorescence Signal Value” 5140. Against it:
- B1 — lower, 5090
- B2 — higher, 5260
- B3 — higher, 5160

Target: T1, human PCSK9 (PCSK9 antigen, SEQ ID NO. …)
Assay: MSD-SET, Fab with biotin-PCSK9 in solution, IgG on plate, pH 7.4
Experimental: (§1) Anti-PCSK9 Fabs or mAbs obtained above were 3 to 5-fold serially diluted, and Fab or mAb solutions with concentrations of 5-100 nM were obtained. The antibodies (diluted in 20 nM phosphate buffered saline) were coated on MSD-ECL plates at 4° C. overnight or at room temperature for 30 minutes. 3% BSA was added, blocked at room temperature for 30 minutes at 700 rpm, and then washed 3 times with washing buffer (PBSF+0.05% Tween 20). The samples were added in the plate and placed in a shaker and incubated at room temperature at 700 rpm for 150 seconds, and then washed once. 250 ng/ml of sulfotag-labeled streptavidin (diluted in PBSF) was added and incubated at room temperature for 3 minutes. After washing 3 times with buffer, the antigen bound to the plate was determined using MSD Sector Imager 2400 Reader Device. The percentage of unbound antigen was obtained by antibody titration method.

Point of comparison: B6, Kd 11 pM. Against it:
- B5 — within 1.5-fold, 8.6 pM
- B7 — 1.5-fold higher, 17 pM
- B8 — 2.6-fold lower, 4.2 pM
- B9 — 2.2-fold lower, 5 pM

Target: T2, murine PCSK-9 (murine, UniProt Q80W65 35-694)
T2 construct: also called mouse PCSK9
Assay: as above
Experimental: as §1

Point of comparison: B5, Kd 60 pM. Against it:
- B6 — within 1.5-fold, 70 pM
- B7 — 2-fold higher, 120 pM
- B8 — within 1.5-fold, 41 pM
- B9 — within 1.5-fold, 41 pM

Target: T1, human PCSK9 (PCSK9 antigen, SEQ ID NO. …)
Assay: BLI (ForteBio), IgG on AHQ sensor, 100 nM antigen
Experimental: (§2) Briefly, the sensor was equilibrated off-line in the assay buffer for 30 minutes, and then was tested on-line for 60 seconds to establish a baseline. The purified antibody obtained as described above was loaded online onto the AHQ sensor. The sensor was then placed in 100 nM of PCSK9 antigen for 5 minutes, then the sensor was transferred to assay buffer for dissociation for 5 minutes. The kinetic analysis was performed by using a 1:1 binding model.

Point of comparison: B4, Kd 311 pM. Against it:
- B1 — within 1.5-fold, 295 pM
- B2 — within 1.5-fold, 296 pM
- B3 — 1.5-fold higher, 471 pM

Target: T2, murine PCSK-9
Assay: BLI (ForteBio), IgG on AHQ sensor, 100 nM antigen
Experimental: as §2

Point of comparison: B2, Kd 558 pM. Against it:
- B1 — within 1.5-fold, 544 pM
- B3 — 1.5-fold higher, 855 pM
- B4 — within 1.5-fold, 589 pM

Target: T1, human PCSK9 (PCSK9 antigen, SEQ ID NO. …)
Assay: flow cytometry, PCSK9 left on CHO-LDLR cells (anti-His-FITC) after premix with 1 nM antibody

Point of comparison: B2, “Fluorescence Signal Value” 6480. Against it:
- B1 — higher, 8910
- B3 — higher, 6830
- B4 — higher, 6500

Target: T1, human PCSK9 (PCSK9 antigen, SEQ ID NO. …)
Assay: cell-based or functional assay
Remark: another data set of the same source

Point of comparison: B2, “BODIPY-LDL uptake by HepG2 cells, fluorescence, 4.2 nM, replicate 1” value 0.37. Against it:
- B1 — higher, 0.423
- B3 — lower, 0.357
- B4 — higher, 0.38

Point of comparison: B3, “BODIPY-LDL uptake by HepG2 cells, fluorescence, 4.2 nM, replicate 2” value 0.401. Against it:
- B1 — higher, 0.435
- B2 — higher, 0.403
- B4 — lower, 0.399

Point of comparison: B3, “BODIPY-LDL uptake by HepG2 cells, fluorescence, 16.8 nM, replicate 1” value 0.574. Against it:
- B1 — higher, 0.78
- B2 — higher, 0.72
- B4 — higher, 0.712

Point of comparison: B4, “BODIPY-LDL uptake by HepG2 cells, fluorescence, 16.8 nM, replicate 2” value 0.706. Against it:
- B1 — higher, 0.742
- B2 — lower, 0.683
- B3 — lower, 0.561

Point of comparison: B4, “BODIPY-LDL uptake by HepG2 cells, fluorescence, 66.7 nM, replicate 1” value 0.774. Against it:
- B1 — lower, 0.749
- B2 — lower, 0.758
- B3 — lower, 0.706

Point of comparison: B4, “BODIPY-LDL uptake by HepG2 cells, fluorescence, 66.7 nM, replicate 2” value 0.741. Against it:
- B1 — higher, 0.797
- B2 — higher, 0.775
- B3 — higher, 0.752

Target: T1, human PCSK9 (PCSK9 antigen, SEQ ID NO. …)
Assay: flow cytometry, PCSK9 left on CHO-LDLR cells (anti-His-FITC) after premix with 1000 nM antibody

Point of comparison: B4, “Fluorescence Signal Value” 5330. Against it:
- B1 — higher, 5700
- B2 — lower, 5090
- B3 — lower, 5220

Target: T1, human PCSK9 (PCSK9 antigen, SEQ ID NO. …)
Assay: flow cytometry, PCSK9 left on CHO-LDLR cells (anti-His-FITC) after premix with 10 nM antibody

Point of comparison: B1, “Fluorescence Signal Value” 5680. Against it:
- B2 — higher, 5740
- B3 — higher, 5830
- B4 — lower, 5640

Target: T1, human PCSK9 (PCSK9 antigen, SEQ ID NO. …)
Assay: MSD-SET, Fab with biotin-PCSK9 in solution, IgG on plate, pH 6.0

Point of comparison: B6, Kd 10 pM. Against it:
- B5 — within 1.5-fold, 13 pM
- B7 — 2.1-fold higher, 21 pM
- B8 — 1.7-fold lower, 5.9 pM
- B9 — within 1.5-fold, 9.8 pM

Target: T1, human PCSK9 (PCSK9 antigen, SEQ ID NO. …)
Assay: ForteBio method and MSD-SET assay, as the sentence says; end tied to ADI-10085 by Table 2
Experimental: as §2

For B8, the Kd was 4 pM.

Target: T1, human PCSK9 (PCSK9 antigen, SEQ ID NO. …)
Assay: flow cytometry, PCSK9 left on CHO-LDLR cells (anti-His-FITC) after premix with 0.1 nM antibody

Point of comparison: B3, “Fluorescence Signal Value” 6800. Against it:
- B1 — higher, 10400
- B2 — higher, 6860
- B4 — higher, 6890
